Data set [1] has as its target T1, RXR-DBD-EKE-MYC + RAR-DBD-KEK-S-EE heterodimer (UniProt P19793; SEQ:260-356,SEQ:260-363).
T1 chain 1: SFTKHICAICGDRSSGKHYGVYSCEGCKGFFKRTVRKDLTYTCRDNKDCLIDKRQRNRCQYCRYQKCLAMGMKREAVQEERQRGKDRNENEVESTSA
T1 chain 2: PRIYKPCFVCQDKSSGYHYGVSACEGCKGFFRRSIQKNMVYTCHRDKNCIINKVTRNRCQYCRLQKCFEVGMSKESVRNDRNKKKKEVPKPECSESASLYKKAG
The data set is described as follows: ELONA; antibody-captured detectors, streptavidin-HRP readout, RT. The settings on record: tags: GST, label: 5'-biotin. Here is the method:
(§1) Method: 96-well microtiter plates were coated with a-EE (Y) and a-MYC (Y) at 10 ng/μl in 100 mM NaHCO3/Na2CO3 (pH 9.6). Excess antibody was removed and wells were blocked using 3% BSA. The biodetectors were then captured in the well as indicated in figures followed by the addition of 50 μl/well of biotinylated-DR5 DNA sequence (BIO-DR5, 5 pmol/μl). Control for specificity is the non-consensus oligo (BIO-non consensus) and un-biotinylated DR5 (competitor) to establish signal specificity. Washes were performed at each step to assure the removal of unbound reagents. Streptavidin-HRP was incubated for 30 min at RT, and after three washes, binding was assessed using TMB substrate. Absorbance was measured at 450 nm. Samples are in duplicate.
(§2) ELISA assays were carried out by coating 500 ng of α-MYC and α-EE antibodies diluted in 100 mM bicarbonate buffer (50 ul/well, pH 9.6). Antibodies were coated for 2 h at RT in a microtiter plate (MaxiSorp, Nunc). The wells were then washed once with 200 ul of PBS buffer (pH 7.3) and incubated 0/N at 4° C. with 200 ul of blocking buffer (PBS+3% BSA). The biodetectors where then added at the concentration of 0.7 pmol/well (50 ul/well in 150 mM NaCl, 50 mM Tris pH 7.6, 10% glycerol and 1% BSA) and incubated for 1 h at RT. […]

Data set [2] addresses T2, RAR-DBD-KEK-S-EE.
T2 chain: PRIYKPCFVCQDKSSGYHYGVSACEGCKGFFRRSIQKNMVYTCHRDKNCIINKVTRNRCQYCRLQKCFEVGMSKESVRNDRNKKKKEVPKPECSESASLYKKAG
The data set is described as follows: ELONA; RAR alone; monomeric RAR does not bind DR5. Particulars: tags: GST, label: 5'-biotin. As for the experimental part: as §1, §2

Data set [3] has as its target T3, RXR-DBD-EKE-MYC (UniProt P19793 SEQ:260-356).
T3 chain: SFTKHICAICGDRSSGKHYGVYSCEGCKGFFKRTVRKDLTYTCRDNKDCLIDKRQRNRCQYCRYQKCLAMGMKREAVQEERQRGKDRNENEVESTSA
As to the kind of experiment: ELONA; RXR alone; monomeric RXR does not bind DR5. The settings on record: tags: GST, label: 5'-biotin. As for the experimental part: as §1, §2

Data set [4] addresses T4, RAR-PLCgNSH2-HA-EE.
T4 chain: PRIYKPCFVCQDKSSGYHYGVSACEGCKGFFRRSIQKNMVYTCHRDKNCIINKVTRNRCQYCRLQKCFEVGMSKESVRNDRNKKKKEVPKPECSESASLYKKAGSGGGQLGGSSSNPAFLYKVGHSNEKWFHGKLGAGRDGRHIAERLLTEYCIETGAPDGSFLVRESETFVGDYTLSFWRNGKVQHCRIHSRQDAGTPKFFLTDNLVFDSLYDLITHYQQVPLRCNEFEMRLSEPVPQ
As to the kind of experiment: ELONA; single reagent alone; combined RXR/RAR required for signal. The settings on record: tags: GST, HA-EE-HIS; label: 5'-biotin.
Description: (§3) Streptavidin was coated for 2 h at RT in a microtiter plate (MaxiSorp, Nunc). The wells were then washed once with 200 ul of 0.8× sodium citrate buffer (0.8×SSC: 120 mM NaCl, 12 mM sodium citrate) and incubated 0/N at 4° C. with 200 μl of blocking buffer (3% BSA in 0.8×SSC). The appropriate biotinylated phospho-peptide/s were then added at the concentration of 1.2 pmol/well in 0.8×SSC with additionally 1% BSA and incubated for 1 h at RT. After washing three times with 0.8×SSC containing 0.1% Tween 20 (0.8×SSC/Tw) a blocking step was carried out using biotin at the concentration of 40 ng/well (160 pmol/well in 0.8×SSC buffer). Biotin was incubated for 10 min at RT. The wells were then washed three times with 200 ul of 0.8×SSC containing 0.1% Tween 20 and the biodetectors were then added at the concentration of 2 pmol/well (50 ul/well in 0.8×SSC buffer, 1% BSA).
(§4) The biodetectors were incubated for 1 h at RT. After washing three times with 200 ul of 0.8×SSC/Tw, 50 μl of biotinylated-DR5 DNA sequence (Biot-DR5, 5 pmol/well in 0.8×SSC/Tw buffer, 1% BSA) were added to the wells and plates were incubated for 1 h at RT. After washing three times with 0.8×SSC/Tw, each well was incubated with Streptavidin-HRP conjugated diluted 1:3,000 in 0.8×SSC/Tw containing 1% BSA. […] The reaction was stopped by adding 100 ul of 2 M H₂SO₄ and the optical density (O.D.) was read at the wavelength of 450 nm.

The target of data set [5] is RXR-Grb2SH2-MYC. The data set is described as above. The settings on record: tags: GST, MYC-HIS; label: 5'-biotin.
Description: as §3, §4
Data set [6] deals with RXR-Grb2SH2-MYC + RAR-PLCgNSH2-HA-EE heterodimer. The data set is described as follows: ELONA; antibody- or bis-phosphopeptide-captured; peptide assay in 0.8xSSC, RT. Particulars: tags: GST, MYC-HIS (RXR), label: 5'-biotin.

B1: BIO-DR5 (dsDNA)
DNA 1: TGGTATCTAGTTATTGCTCAGCGTGCCAGGTCACCGAAAGGTCAGAG
DNA 2: CTCTGACCTTTCGGTGACCTGGCACGCTGAGCAATAACTAGATACCA
Take B1: the binding result is “binds” in data set [1]; “no binding” in data set [2]; “no binding” in data set [3]; “no binding” in data set [4]; “no binding” in data set [5]; “binds” in data set [6].

The values are drawn from patent US20130171644, “COINCIDENCE DETECTION” (KING'S COLLEGE LONDON, published 2013).
